Patent publication US20210292393A1 (published 2021)
Substitutions are numbered along the chain they refer to.

Key:
[1] = biological target: SARS-CoV-2 full length spike protein, V367F mutant (SARS-CoV-2, UniProt P0DTC2 14-1273)
[2] = biological target: SARS-CoV-2 full length spike protein, D614G mutant (SARS-CoV-2, UniProt P0DTC2 14-1273)
[3] = biological target: SARS-CoV-2 full length spike protein, V367F mutant, expressed on the surface of CHO cells (SARS-CoV-2, UniProt P0DTC2 14-1273)
[4] = biological target: SARS-CoV-2 full length spike protein, D614G mutant, expressed on the surface of CHO cells (SARS-CoV-2, UniProt P0DTC2 14-1273)
[5] = biological target: SARS-CoV-2 full length spike protein, V367F mutant (SARS-CoV-2, UniProt P0DTC2 14-1273); remark: listed apart in the source
[6] = biological target: SARS-CoV-2 full length spike protein, D614G mutant (SARS-CoV-2, UniProt P0DTC2 14-1273); remark: listed apart in the source

B1: antibody 535 (antibody, V domains shown)
VH: EVQLVESGGGLIQPGGSLRLSCAASGFTVSSNYMSWVRQAPGKGLEWVSVIYSGGSTYYADSVKGRFTISRDNSKNTLYLQMNSLRAEDTAVYYCARDLTEEGDFWSASSYRRYYYYGMDVWGQGTTVTVSS
VL: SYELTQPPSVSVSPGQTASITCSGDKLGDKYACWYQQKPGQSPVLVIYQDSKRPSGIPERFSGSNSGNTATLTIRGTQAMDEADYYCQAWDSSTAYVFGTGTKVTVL
median fold over isotype [1]: 64.5 fold over isotype | median fold over isotype [2]: 93.2 fold over isotype

B2: antibody 357 (antibody, V domains shown)
VH: QVQLVQSGAEVKKPGSSVKVSCKASGGTFSSYAISWVRQAPGQGLEWMGRIIPILGIANYAQKFQGRVTITADKSTSTAYMELSSLRSEDTAVYYCARGPIAVAGIGPWFDPWGQGTLVTVSS
VL: QSVLTQPPSVSAAPGQKVTISCSGSSSNIGNNYVSWYQQLPGTAPKLLIYDNNKRPSGIPDRFSGSKSGTSATLGITGLQTGDEADYYCGTWDSSLSAVVFGGGTKLTVL
median fluorescence intensity, fold over isotype control [3]: 28 fold over isotype | median fluorescence intensity, fold over isotype control [4]: 5.37 fold over isotype

B3: antibody 529 (antibody, V domains shown)
VH: QVQLVQSGAEVKKPGASVKVSCKASGYTFTSYGISWVRQAPGQGLEWMGWISAYNGNTNYAQKLQGRVTMTTDTSTSTAYMELRSLRSDDTAVYYCARMLIAAAGTSRDYYGMDVWGQGTTVTVSS
VL: EIVLTQSPDFQSVTPKEKVTITCRASQSIGSSLHWYQQKPDQSPKLLIKYASQSFSGVPSRFSGSGSGTDFTLTINSLEAEDAATYYCHQSSSLPHTFGGGTKVEIK
median fold over isotype [1]: 0.98 fold over isotype | median fold over isotype [2]: 0.77 fold over isotype

B4: antibody 302 (antibody, V domains shown)
VH: QVQLVQSGAEVRKPGASVKVSCKVSGYTLSELSMHWVRQAPGKGLEWMGGFDPEDGERMYAQKFQGRVTMTEDTSTDTAYMELSSLRSEDTAIYYCTTDLSYLWSGKLEPDYWYFALWGRGTLVTVSS
VL: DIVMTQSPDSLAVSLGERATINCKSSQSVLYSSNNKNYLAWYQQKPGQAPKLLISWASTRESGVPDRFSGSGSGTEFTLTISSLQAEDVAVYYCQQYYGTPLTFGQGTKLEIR
median fluorescence intensity, fold over isotype control [5]: 26.5 fold over isotype | median fluorescence intensity, fold over isotype control [6]: 45.4 fold over isotype

B5: antibody 272 (antibody, V domains shown)
VH: QVQLVQSGAEVKKPGASVKVSCKASGYTFTTYYMHWVRQAPGQGLEWMGIINPSGGSASYAQKFQGRVTMTRDTSTSTVYMELSSLRSEDTAVYYCARDHTLVNGDYEYYYGMDVWGQGTTVTVSS
VL: SYELTQPPSVSVSPGQTARITCSGDALPKQYAYWYQQKPGQAPVSVIYKDSERPSGIPERISGSSSGTTVTLTISGVQAEDEADYYCQSADSSGTYLVFGGGTKLTVL
median fluorescence intensity, fold over isotype control [5]: 40.4 fold over isotype | median fluorescence intensity, fold over isotype control [6]: 79.7 fold over isotype

B6: antibody 268 (antibody, V domains shown)
VH: QVQLQESGPGLVKPSQTLSLTCTVSGGSISSGSYYWSWIRQPAGKGLEWIGRIYTSGSTNYNPSLKSRVTISVDTSKNQFSLKLSSVTAADTAVYYCARELVGGLLGTIDYWGQGTLVTVSS
VL: DIQLTQSPSFLSASVGDRVTITCRASQGISSYLAWYQQKPGKAPKLLIYAASTLQSGVPSRFSGSGSGTEFTLTISSLQPEDFATYYCQQLNSYPYTFGQGTKLEIK
median fluorescence intensity, fold over isotype control [5]: 8.9 fold over isotype | median fluorescence intensity, fold over isotype control [6]: 8.18 fold over isotype

B7: antibody 530 (antibody, V domains shown)
VH: EVQLVESGGGLVQPGGSLRLSCAASGFTFSSYWMSWVRQAPGKGLEWVANIKQDGSEKYYVDSVKGRFTISRDNAKNSLYLQMNSLRAEDTAVYYCAREPQLWSEYYFDYWGQGTLVTVSS
VL: B6 VL with L4M, F10S, Y32W, G41E, L46S, T53S, E70D, L91Y, Y96P, K103R
median fold over isotype [1]: 8.39 fold over isotype | median fold over isotype [2]: 8.68 fold over isotype

B8: antibody 525 (antibody, V domains shown)
VH: QVQLVESGGGVVQPGRSLRLSCAASGFTFSSYAMHWVRQAPGKGLEWVTVISYNGRNKYYADSVKGRFTISRDNSKNTLYLQMNSLRAEDTAVYWCAREGLGAIVVGLDYWGQGTLVIVSS
VL: not shown
median fold over isotype [1]: 32.4 fold over isotype | median fold over isotype [2]: 7.12 fold over isotype

B9: antibody 286 (antibody, V domains shown)
VH: QVHLVESGGGVVQPGKSLRLSCAGSGFIFSDFGMHWVRQSPGKGLEWVAVVSYDGSVTKYSDSFEGRFTISRDNSKNTLYLQMDSLRPDDTAIYYCAKGQGANLLHYWGKGILVTVSS
VL: DVVLTQSPLSLPVTLGQPASISCRSSESLVYTDGDTYLHWFHQRPGQSPRRLIYKVSNRDSGVPDRFSGSGSGTDFTLKISRVEAEDVGVYYCMQGTHWPFTFGPGTKVDIK
median fluorescence intensity, fold over isotype control [5]: 28.2 fold over isotype | median fluorescence intensity, fold over isotype control [6]: 6.17 fold over isotype

B10: antibody 358 (antibody, V domains shown)
VH: QVQLVESGGGVVQPGRSLRLSCAASGFNLNSYAMHWVRQASGKGLEWVSLMSYDGSIKYYADSVKGRFTVSGDNSRNTLFLQMNSLRPDDSALYYCVRGGVSGPNSFDLWGQGTTVTVSS
VL: DVVMTQSPLSLPVTLGQPASISCRSSQSLVYSDGSTYVNWFQQRPGQSPRRLIYKVSNRDSGVPDRFSGSGSGTDFALKISRVEAEDVGVYYCMQGTHWPVTFGQGTKVEIK
median fluorescence intensity, fold over isotype control [3]: 38.4 fold over isotype | median fluorescence intensity, fold over isotype control [4]: 8.74 fold over isotype

B11: antibody 532 (antibody, V domains shown)
VH: EVQLVESGGGLVQPGGSLRLSCAASGIIVSSNYMSWVRQAPGKGLEWVSVIYSGGSTYYADSVKGRFTISRDNSKNTLYLQMNSLRAEDTAVYYCAREGLVGATLAFDYWGQGTLVTVSS
VL: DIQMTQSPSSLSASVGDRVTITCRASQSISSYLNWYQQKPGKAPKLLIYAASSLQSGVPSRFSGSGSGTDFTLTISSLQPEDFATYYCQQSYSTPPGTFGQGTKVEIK
median fold over isotype [1]: 45.1 fold over isotype | median fold over isotype [2]: 74.9 fold over isotype

B12: antibody 515 (antibody, V domains shown)
VH: EVQLVESGGGLVKPGGSLRLSCAASGFTFSSYSMNWVRQAPGKGLEWVSSISSSSSYIYYADSVKGRFTISRDNAKNSLYLQMNSLRAEDTAVYYCASIAAAGTLYYYYGMDVWGQGTTVTVSS
VL: not shown
median fold over isotype [1]: 9.43 fold over isotype | median fold over isotype [2]: 21.6 fold over isotype

B13: antibody 298 (antibody, V domains shown)
VH: EVQLVESGGGLVQPGGSLRLSCAASGFTVSSNYMSWVRQAPGKGLEWVSVIYSGGSTYYADSVKGRFTISRDNSKNTLYLQMNSLRAEDTAVYYCAREEGEWEKDYYGMDVWGQGTTVTVSS
VL: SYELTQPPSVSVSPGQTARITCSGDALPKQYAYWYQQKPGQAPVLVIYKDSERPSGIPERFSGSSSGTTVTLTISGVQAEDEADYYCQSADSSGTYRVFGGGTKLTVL
median fluorescence intensity, fold over isotype control [5]: 35.7 fold over isotype | median fluorescence intensity, fold over isotype control [6]: 66.8 fold over isotype

B14: antibody 310 (antibody, V domains shown)
VH: EVQLVESGGGLVQPGGSLRLSCAASGFTFSSYWMSWVRQAPGKGLEWVANIKQDGSEKYYVDSVKGRFTISRDNAKNSLYLQMNSLRAEDTAVYYCARVGSSSWYFDYWGQGTLVTVSS
VL: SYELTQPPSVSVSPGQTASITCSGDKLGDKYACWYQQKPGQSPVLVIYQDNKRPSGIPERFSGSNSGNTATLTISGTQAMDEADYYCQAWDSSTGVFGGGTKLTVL
median fluorescence intensity, fold over isotype control [5]: 28.1 fold over isotype | median fluorescence intensity, fold over isotype control [6]: 5.35 fold over isotype

B15: antibody 261 (antibody, V domains shown)
VH: QVQLVESGGGVVQPGRSLRLSCAASGFTFSSYAMHWVRQAPGKGLEWVAVISYDGSNKYYADSVKGRFTISRDNSKNTLYLQMNSLRAEDTAVYYCARDEAYYDILTGYINAPKNYYYYGMDVWGQGTTVTVSS
VL: DIQMTQSPSSLSASVGDRVTITCRASQGIRNDLGWYQQKPGKAPKRLIYAASSLQSGVPSRFSGSGSGTEFTLTISSLQPEDFATYYCLQHNSYPFTFGPGTKVDIK
median fluorescence intensity, fold over isotype control [5]: 59.9 fold over isotype | median fluorescence intensity, fold over isotype control [6]: 87 fold over isotype

B16: antibody 356 (antibody, V domains shown)
VH: QVQLVQSGAEVKKPGASVKVSCKASGYTFTSYGISWVRQAPGQGLEWMGWISAYHGNTNYAQKLQGRVTMTTDTSTSTAYMELRSLRSDDTAVYYCARVGLWWLGHADAFDIWGQGTMVTVSS
VL: B15 VL with F96L, P100G, D105E
median fluorescence intensity, fold over isotype control [3]: 60.4 fold over isotype | median fluorescence intensity, fold over isotype control [4]: 90.8 fold over isotype

B17: antibody 287 (antibody, V domains shown)
VH: QLQLQESGPGLVKPSETLSLTCTVSGGSISSSSYYWGWIRQPPGKGLEWIGSIFYSGSTYYNPSLKSRVTIFVDTSKNQFSLKLSSVTAADTAVYYCARFDYQVVDLTGFDYWGQGTLVTVSS
VL: B15 VL with S76R, H91Y, F96L, P100G, D105E
median fluorescence intensity, fold over isotype control [5]: 60.9 fold over isotype | median fluorescence intensity, fold over isotype control [6]: 87.4 fold over isotype

B18: antibody 528 (antibody, V domains shown)
VH: QVQLVQSGAEVKKPGSSVKVSCKASGGTFNSNSISWVRQAPGQGLEWMGRIIPILDITMYARKFQGRVTISADKSTGTAYMDLSSLRSEDTAVYYCATDRDDSSGDYYYGMDVWGQGTTVTVSS
VL: DIQMTQSPSSLSASVGDRVTITCRASLSISNYLNWYQQKPGKAPNLLIYAASTLQSGVPSRFSGSGSGTDFTLTISSLQPEDFATYYCQQTYITRWTFGQGTKVEIK
median fold over isotype [1]: 31.2 fold over isotype | median fold over isotype [2]: 3.71 fold over isotype

B19: antibody 308 (antibody, V domains shown)
VH: QLQLQESGPGLVKPSETLSLTCSVSGGSISSSSYHWGWIRQPPGKGLEWIGSIYYSGSTYYNPSLKSRVTISVDTSKNQFSLKLRSVTAADTAVYYCAGLRVVITFGGVIPKGGAFDIWGQGTMVTVSS
VL: QSALTQPASVSGSPGQSITISCTGTSSDVGGYNYVSWYQQHPGKAPKLMIYDVSNRPSGVSNRFSGSKSGNTASLTISGLQAEDEADYYCSSYTSSSTVVFGGGTKLTVL
median fluorescence intensity, fold over isotype control [5]: 33.4 fold over isotype | median fluorescence intensity, fold over isotype control [6]: 7.93 fold over isotype

B20: antibody 520 (antibody, V domains shown)
VH: QVQLVESGGGVVQPGRSLRLSCAASGFTFSSYAMHWGRQAPGKGLEWVAVISYDGSNKYYADSVKGRFTISRDNSKNTLYLQMNSLRAEDTAVYYCARDGGSGWLLVGNWFDPWGQGTLVTVSS
VL: QSALTQPASVSGSPGQSITISCTGTSSDVGGYNYVSWYQQHPGKAPKLMIYDVSNRPSGVSNRFSGSKSGNTASLTISGLQAEDEADYYCSSYTSSITLYVFGTGTKVTVL
median fold over isotype [1]: 31.2 fold over isotype | median fold over isotype [2]: 7.6 fold over isotype

B21: antibody 305 (antibody, V domains shown)
VH: QVQLVESGGGVVQPGRSLRLSCAASGFTFSSYAMHWVRQAPGKGLEWVAVISYDGSNKYYADSVKGRFTISRDNSKNTLYLQMNSLRAEDTAVYYCAREQTSYDYVWGTLGAYYYYGMDVWGQGTTVTVSS
VL: SSELTQDPAVSVALGQTVRITCQGDSLRSYYASWYQQKPGQAPVLVIYGKNNRPSGIPDRFSGSSSGNTASLTITGAQAEDEADYYCNSRDSSGNHLVFGGGTKLTVL
median fluorescence intensity, fold over isotype control [5]: 41 fold over isotype | median fluorescence intensity, fold over isotype control [6]: 78.9 fold over isotype
